Where no end group is shown, it is not given here. The star is where a group is joined. Succinimide(1-Et,3-yl) = CCN1C(=O)CC(*)C1=O
T1: human corticotrophin releasing hormone receptor type 2 (CRHR2) (human, UniProt Q13324 1-411)
T1 sequence (looked up): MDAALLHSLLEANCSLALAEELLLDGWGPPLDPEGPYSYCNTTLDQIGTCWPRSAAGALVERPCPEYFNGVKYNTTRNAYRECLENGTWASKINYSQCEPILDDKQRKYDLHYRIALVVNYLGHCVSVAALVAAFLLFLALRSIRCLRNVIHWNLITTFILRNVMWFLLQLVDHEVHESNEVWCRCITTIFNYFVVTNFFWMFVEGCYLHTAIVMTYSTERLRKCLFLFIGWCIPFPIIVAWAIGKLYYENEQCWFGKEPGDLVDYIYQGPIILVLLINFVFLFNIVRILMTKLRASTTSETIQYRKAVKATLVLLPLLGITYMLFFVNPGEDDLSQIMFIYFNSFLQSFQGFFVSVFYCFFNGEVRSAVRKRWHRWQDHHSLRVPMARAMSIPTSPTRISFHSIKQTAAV

B1: Cys-variant of stresscopin peptide with N-Ethylsuccinimide (NES) reactive group SEQ ID NO: 52 (peptide)
peptide: TKFTLSLDVPTNIMNLLFC(Succinimide(1-Et,3-yl))IAKAKNLRAQAAANAHLMAQI-NH2
modifications: N-terminus assumed
SMILES: CC[C@H](C)[C@H](NC(=O)[C@H](CCC(N)=O)NC(=O)[C@H](C)NC(=O)[C@H](CCSC)NC(=O)[C@H](CC(C)C)NC(=O)[C@H](Cc1c[nH]cn1)NC(=O)[C@H](C)NC(=O)[C@H](CC(N)=O)NC(=O)[C@H](C)NC(=O)[C@H](C)NC(=O)[C@H](C)NC(=O)[C@H](CCC(N)=O)NC(=O)[C@H](C)NC(=O)[C@H](CCCNC(=N)N)NC(=O)[C@H](CC(C)C)NC(=O)[C@H](CC(N)=O)NC(=O)[C@H](CCCCN)NC(=O)[C@H](C)NC(=O)[C@H](CCCCN)NC(=O)[C@H](C)NC(=O)[C@@H](NC(=O)[C@H](CSC1CC(=O)N(CC)C1=O)NC(=O)[C@H](Cc1ccccc1)NC(=O)[C@H](CC(C)C)NC(=O)[C@H](CC(C)C)NC(=O)[C@H](CC(N)=O)NC(=O)[C@H](CCSC)NC(=O)[C@@H](NC(=O)[C@H](CC(N)=O)NC(=O)[C@@H](NC(=O)[C@@H]1CCCN1C(=O)[C@@H](NC(=O)[C@H](CC(=O)O)NC(=O)[C@H](CC(C)C)NC(=O)[C@H](CO)NC(=O)[C@H](CC(C)C)NC(=O)[C@@H](NC(=O)[C@H](Cc1ccccc1)NC(=O)[C@H](CCCCN)NC(=O)[C@@H](N)[C@@H](C)O)[C@@H](C)O)C(C)C)[C@@H](C)O)[C@@H](C)CC)[C@@H](C)CC)C(N)=O
B2: Cys-variant of stresscopin peptide with N-Ethylsuccinimide (NES) reactive group SEQ ID NO: 47 (peptide)
peptide: TKFTLSLDVPTNIMNLLFNIAKAKNLRC(Succinimide(1-Et,3-yl))QAAANAHLMAQI-NH2
modifications: N-terminus assumed
SMILES: CC[C@H](C)[C@H](NC(=O)[C@H](CCC(N)=O)NC(=O)[C@H](C)NC(=O)[C@H](CCSC)NC(=O)[C@H](CC(C)C)NC(=O)[C@H](Cc1c[nH]cn1)NC(=O)[C@H](C)NC(=O)[C@H](CC(N)=O)NC(=O)[C@H](C)NC(=O)[C@H](C)NC(=O)[C@H](C)NC(=O)[C@H](CCC(N)=O)NC(=O)[C@H](CSC1CC(=O)N(CC)C1=O)NC(=O)[C@H](CCCNC(=N)N)NC(=O)[C@H](CC(C)C)NC(=O)[C@H](CC(N)=O)NC(=O)[C@H](CCCCN)NC(=O)[C@H](C)NC(=O)[C@H](CCCCN)NC(=O)[C@H](C)NC(=O)[C@@H](NC(=O)[C@H](CC(N)=O)NC(=O)[C@H](Cc1ccccc1)NC(=O)[C@H](CC(C)C)NC(=O)[C@H](CC(C)C)NC(=O)[C@H](CC(N)=O)NC(=O)[C@H](CCSC)NC(=O)[C@@H](NC(=O)[C@H](CC(N)=O)NC(=O)[C@@H](NC(=O)[C@@H]1CCCN1C(=O)[C@@H](NC(=O)[C@H](CC(=O)O)NC(=O)[C@H](CC(C)C)NC(=O)[C@H](CO)NC(=O)[C@H](CC(C)C)NC(=O)[C@@H](NC(=O)[C@H](Cc1ccccc1)NC(=O)[C@H](CCCCN)NC(=O)[C@@H](N)[C@@H](C)O)[C@@H](C)O)C(C)C)[C@@H](C)O)[C@@H](C)CC)[C@@H](C)CC)C(N)=O
B3: Cys-variant of stresscopin peptide with N-Ethylsuccinimide (NES) reactive group SEQ ID NO: 51 (peptide)
peptide: TKFTLSLDVPTNIMNLLFNC(Succinimide(1-Et,3-yl))AKAKNLRAQAAANAHLMAQI-NH2
modifications: N-terminus assumed
SMILES: CC[C@H](C)[C@H](NC(=O)[C@H](CCC(N)=O)NC(=O)[C@H](C)NC(=O)[C@H](CCSC)NC(=O)[C@H](CC(C)C)NC(=O)[C@H](Cc1c[nH]cn1)NC(=O)[C@H](C)NC(=O)[C@H](CC(N)=O)NC(=O)[C@H](C)NC(=O)[C@H](C)NC(=O)[C@H](C)NC(=O)[C@H](CCC(N)=O)NC(=O)[C@H](C)NC(=O)[C@H](CCCNC(=N)N)NC(=O)[C@H](CC(C)C)NC(=O)[C@H](CC(N)=O)NC(=O)[C@H](CCCCN)NC(=O)[C@H](C)NC(=O)[C@H](CCCCN)NC(=O)[C@H](C)NC(=O)[C@H](CSC1CC(=O)N(CC)C1=O)NC(=O)[C@H](CC(N)=O)NC(=O)[C@H](Cc1ccccc1)NC(=O)[C@H](CC(C)C)NC(=O)[C@H](CC(C)C)NC(=O)[C@H](CC(N)=O)NC(=O)[C@H](CCSC)NC(=O)[C@@H](NC(=O)[C@H](CC(N)=O)NC(=O)[C@@H](NC(=O)[C@@H]1CCCN1C(=O)[C@@H](NC(=O)[C@H](CC(=O)O)NC(=O)[C@H](CC(C)C)NC(=O)[C@H](CO)NC(=O)[C@H](CC(C)C)NC(=O)[C@@H](NC(=O)[C@H](Cc1ccccc1)NC(=O)[C@H](CCCCN)NC(=O)[C@@H](N)[C@@H](C)O)[C@@H](C)O)C(C)C)[C@@H](C)O)[C@@H](C)CC)C(N)=O
B4: Cys-variant of stresscopin peptide with N-Ethylsuccinimide (NES) reactive group SEQ ID NO: 49 (peptide)
peptide: TKFTLSLDVPTNIMNLLFNIAKAKC(Succinimide(1-Et,3-yl))LRAQAAANAHLMAQI-NH2
modifications: N-terminus assumed
SMILES: CC[C@H](C)[C@H](NC(=O)[C@H](CCC(N)=O)NC(=O)[C@H](C)NC(=O)[C@H](CCSC)NC(=O)[C@H](CC(C)C)NC(=O)[C@H](Cc1c[nH]cn1)NC(=O)[C@H](C)NC(=O)[C@H](CC(N)=O)NC(=O)[C@H](C)NC(=O)[C@H](C)NC(=O)[C@H](C)NC(=O)[C@H](CCC(N)=O)NC(=O)[C@H](C)NC(=O)[C@H](CCCNC(=N)N)NC(=O)[C@H](CC(C)C)NC(=O)[C@H](CSC1CC(=O)N(CC)C1=O)NC(=O)[C@H](CCCCN)NC(=O)[C@H](C)NC(=O)[C@H](CCCCN)NC(=O)[C@H](C)NC(=O)[C@@H](NC(=O)[C@H](CC(N)=O)NC(=O)[C@H](Cc1ccccc1)NC(=O)[C@H](CC(C)C)NC(=O)[C@H](CC(C)C)NC(=O)[C@H](CC(N)=O)NC(=O)[C@H](CCSC)NC(=O)[C@@H](NC(=O)[C@H](CC(N)=O)NC(=O)[C@@H](NC(=O)[C@@H]1CCCN1C(=O)[C@@H](NC(=O)[C@H](CC(=O)O)NC(=O)[C@H](CC(C)C)NC(=O)[C@H](CO)NC(=O)[C@H](CC(C)C)NC(=O)[C@@H](NC(=O)[C@H](Cc1ccccc1)NC(=O)[C@H](CCCCN)NC(=O)[C@@H](N)[C@@H](C)O)[C@@H](C)O)C(C)C)[C@@H](C)O)[C@@H](C)CC)[C@@H](C)CC)C(N)=O
B5: Cys-variant of stresscopin peptide with N-Ethylsuccinimide (NES) reactive group SEQ ID NO: 48 (peptide)
peptide: TKFTLSLDVPTNIMNLLFNIAKAKNC(Succinimide(1-Et,3-yl))RAQAAANAHLMAQI-NH2
modifications: N-terminus assumed
SMILES: CC[C@H](C)[C@H](NC(=O)[C@H](CCC(N)=O)NC(=O)[C@H](C)NC(=O)[C@H](CCSC)NC(=O)[C@H](CC(C)C)NC(=O)[C@H](Cc1c[nH]cn1)NC(=O)[C@H](C)NC(=O)[C@H](CC(N)=O)NC(=O)[C@H](C)NC(=O)[C@H](C)NC(=O)[C@H](C)NC(=O)[C@H](CCC(N)=O)NC(=O)[C@H](C)NC(=O)[C@H](CCCNC(=N)N)NC(=O)[C@H](CSC1CC(=O)N(CC)C1=O)NC(=O)[C@H](CC(N)=O)NC(=O)[C@H](CCCCN)NC(=O)[C@H](C)NC(=O)[C@H](CCCCN)NC(=O)[C@H](C)NC(=O)[C@@H](NC(=O)[C@H](CC(N)=O)NC(=O)[C@H](Cc1ccccc1)NC(=O)[C@H](CC(C)C)NC(=O)[C@H](CC(C)C)NC(=O)[C@H](CC(N)=O)NC(=O)[C@H](CCSC)NC(=O)[C@@H](NC(=O)[C@H](CC(N)=O)NC(=O)[C@@H](NC(=O)[C@@H]1CCCN1C(=O)[C@@H](NC(=O)[C@H](CC(=O)O)NC(=O)[C@H](CC(C)C)NC(=O)[C@H](CO)NC(=O)[C@H](CC(C)C)NC(=O)[C@@H](NC(=O)[C@H](Cc1ccccc1)NC(=O)[C@H](CCCCN)NC(=O)[C@@H](N)[C@@H](C)O)[C@@H](C)O)C(C)C)[C@@H](C)O)[C@@H](C)CC)[C@@H](C)CC)C(N)=O
B6: Cys-variant of stresscopin peptide with N-Ethylsuccinimide (NES) reactive group SEQ ID NO: 50 (peptide)
peptide: TKFTLSLDVPTNIMNLLFNIAKAC(Succinimide(1-Et,3-yl))NLRAQAAANAHLMAQI-NH2
modifications: N-terminus assumed
SMILES: CC[C@H](C)[C@H](NC(=O)[C@H](CCC(N)=O)NC(=O)[C@H](C)NC(=O)[C@H](CCSC)NC(=O)[C@H](CC(C)C)NC(=O)[C@H](Cc1c[nH]cn1)NC(=O)[C@H](C)NC(=O)[C@H](CC(N)=O)NC(=O)[C@H](C)NC(=O)[C@H](C)NC(=O)[C@H](C)NC(=O)[C@H](CCC(N)=O)NC(=O)[C@H](C)NC(=O)[C@H](CCCNC(=N)N)NC(=O)[C@H](CC(C)C)NC(=O)[C@H](CC(N)=O)NC(=O)[C@H](CSC1CC(=O)N(CC)C1=O)NC(=O)[C@H](C)NC(=O)[C@H](CCCCN)NC(=O)[C@H](C)NC(=O)[C@@H](NC(=O)[C@H](CC(N)=O)NC(=O)[C@H](Cc1ccccc1)NC(=O)[C@H](CC(C)C)NC(=O)[C@H](CC(C)C)NC(=O)[C@H](CC(N)=O)NC(=O)[C@H](CCSC)NC(=O)[C@@H](NC(=O)[C@H](CC(N)=O)NC(=O)[C@@H](NC(=O)[C@@H]1CCCN1C(=O)[C@@H](NC(=O)[C@H](CC(=O)O)NC(=O)[C@H](CC(C)C)NC(=O)[C@H](CO)NC(=O)[C@H](CC(C)C)NC(=O)[C@@H](NC(=O)[C@H](Cc1ccccc1)NC(=O)[C@H](CCCCN)NC(=O)[C@@H](N)[C@@H](C)O)[C@@H](C)O)C(C)C)[C@@H](C)O)[C@@H](C)CC)[C@@H](C)CC)C(N)=O

Biological target: T1, human corticotrophin releasing hormone …
Assay: cell-based or functional assay

Binder | Log DR [log10] | pA50
B1 | 0.05 | 9.42 -log10(M)
B2 | -0.03 | 9.5 -log10(M)
B3 | 0.68 | 8.79 -log10(M)
B4 | 0.11 | 9.36 -log10(M)
B5 | 0.03 | 9.44 -log10(M)
TKFTLSLDVPTNIMNLLFNIAKAKNLRCQAAANAHLMAQI (NES-PEG MW80000 & BRANCHED on Cys 28; C-terminal amide (-NH2)) [Pegylated Cys-variant stresscopin-like peptide, NES-PEG MW80000 & BRANCHED, SEQ ID NO: 101] | 1.9 | 7.84 -log10(M)
B6 | -0.01 | 9.48 -log10(M)
